Experimental data: the supplement of paper PMC10567573
± gives the standard deviation.

Assay: protein stability index of a GFP-peptide fusion (GPS, HEK-293T) (PSI 1-6); higher = more stable
[1] = treatment: DMSO, c terminus: a fixed tail appended
[2] = treatment: MLN4924 1 uM, 8 h, c terminus: a fixed tail appended
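Also: 24-mer peptide tiles fused after GFP, lentivirally expressed, FACS-sorted into six equal bins by GFP/DsRed ratio, decoded by Illumina sequencing, PSI is the read-weighted mean bin number.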

Sequence | protein stability index [1] | protein stability index [2] | protein stability index (treatment: DMSO, c terminus: native) | protein stability index (treatment: MLN4924 1 uM, 8 h, c terminus: native)
KEQRKQMKGRGQLEKPPAPNQAMV [TBC1D10A] | 4.95 ± 0.1 | 5.01 ± 0.34 | – | –
MAGAPDERRRGPAAGEQLQQQHVS [ATP23] | 5.058 ± 0.01 | 4.57 ± 0.25 | – | –
WGKGARGRLGRRDEDAGLPRPVQL [NEK8] | 3.37 ± 0.23 | 3.48 ± 0.32 | – | –
LHYKWIPVEDSHTADISSHFQEAI [DUSP5] | 2.17 ± 0.23 | 2.25 ± 0.52 | – | –
VAQTGILWLLMNNCFLNLSPRKP [GAGE1] | – | – | 2.71 ± 0.17 | 2.82 ± 1.2
GAKDSELASQNKPLWQCYLGRFND [PDS5B] | 2.51 ± 0.37 | 3.25 ± 0.3 | – | –
FFFDRNPGAFGTILTFLRAGKLRL [KCNG1] | 2.48 ± 1.3 | 2.07 ± 0.11 | – | –
YGFSLKTVQGKKGVYMTDITPQGV [PDZK1] | – | 2.5 ± 0.68 | – | –
LTQKRSQLVKKLNDSDHQSSTSPL [VPS39] | 4.8 ± 0.23 | 4.69 ± 0.29 | – | –
DDEGWLHSGDLGQLDGLGFLYVTG [ACSBG2] | 2.66 ± 0.33 | 2.54 ± 0.42 | – | –
LGSTKLSDKDKAVGIFNTVINPML [OR3A1] | 3 ± 0.46 | 3.19 ± 0.28 | – | –
LVLLIIIGIPLFFLELAVGQRIRR [SLC6A17] | 3.2 ± 0.25 | 3.2 ± 0.5 | – | –
QKVDQFDPFTVPTISFICRELDAI [PRIM1] | 2.2 ± 0.24 | 2.31 ± 0.33 | – | –
ITESYQTLHPISSEELLSLKYEND [ETS1] | 4.81 ± 0.095 | 4.85 ± 0.22 | – | –
EMSLPEVQKDKYPEEFSLLKLQTK [SPATS1] | 4.29 ± 0.28 | 4.04 ± 0.34 | – | –
HYAVNSQFTMGGPAISMASPMSIP [CARM1] | 2.63 ± 0.21 | 2.78 ± 0.24 | – | –
HQGIKPYKCSWCGKSFSQNTNLHT [ZNF75A] | 2.1 ± 0.002 | 2.52 ± 0.25 | – | –
LEGFQAQGHPPSLFPPKAKSNQPK [ATE1] | 5.16 ± 0.19 | 5.19 ± 0.18 | – | –
RQQVTNHGRGTEVLLEEPLPLETA [ZNF263] | 5 ± 0.28 | 5.04 ± 0.17 | – | –
QASSERLGLDNRLFGHPGLDMELG [ADAMTSL2] | 3.87 ± 0.12 | 4.02 ± 0.5 | – | –
QPRLSYAEMAEDYPRYPDIHDLDL [CLCN6] | 4.14 ± 0.27 | 4.24 ± 0.14 | – | –
RPQPWLEKEIEEATKKLGFKHPVI [FUT8] | 3.643 ± 0.035 | 3.22 ± 0.37 | – | –

Sequence | protein stability index [1] | protein stability index [2] | protein stability index (treatment: DMSO, c terminus: native) | protein stability index (treatment: MLN4924 1 uM, 8 h, c terminus: native)
HQTQLLYQASAMMVESRYALLIVD [RAD51] | 3.17 ± 0.74 | 2.8 ± 0.66 | – | –
FSTCGSHLTVVAIFYGSGIFNYMR [OR3A1] | 2.89 ± 0.56 | 2.94 ± 0.49 | – | –
SAFSSRGSLSLSFEREPSTSDLGT [RIPK4] | 4.01 ± 0.14 | 4.13 ± 0.14 | – | –
NWTVAFAPDGSYFAWSQGHRTVKL [WSB1] | 2.42 ± 0.53 | 2.47 ± 0.44 | – | –
HGHMCIAFELLGKNTFEFLKENNF [CLK3] | 2.55 ± 0.87 | 2.92 ± 1.3 | – | –
ETNEEDKTLQEIYRKYRKLIESEL [FBXO39] | 3.02 ± 0.44 | 3.4 ± 0.34 | – | –
KPAEYGYVSLGRLGAAKGALHPGC [CEBPB] | 2.94 ± 0.11 | 3.06 ± 0.32 | – | –
QYESIAAKNLQEAEEWYKSKYADL [PRPH] | 4.76 ± 0.23 | 4.49 ± 0.21 | – | –
KYDPHTGHWTNVTPMATKRSGAGV [KLHL12] | 3.69 ± 0.47 | 3.78 ± 0.17 | – | –
RVLHDFGLDGYRGYSLADWVCLAY [SPACA3] | 2.2 ± 0.34 | 2.21 ± 0.18 | – | –
KQQNVAHCMLVSNRVSWWGSTLAM [ZBED1] | 2.19 ± 0.37 | 2.03 ± 0.31 | – | –
RADKNDDGKLSFEEFKAYFADGVL [NECAB1] | 3.48 ± 0.3 | 3.58 ± 0.39 | – | –
VLKKLAQSRRTALATSPITVGDLG [YJU2B] | 2.614 ± 0.015 | 2.58 ± 0.24 | – | –
EAGGKQKAVEEELDAEDRPAWNSK [SLC6A17] | 5.62 ± 0.16 | 5.57 ± 0.15 | – | –
HSFVLVTSLGLTYDGMLSDVQSMP [MAGEA10] | 2.83 ± 0.53 | 2.88 ± 0.47 | – | –
LRRVLDELTLARTDLEMQIEGLKE [KRT16] | 2.9 ± 0.52 | 3.07 ± 0.14 | – | –
VDGAGKPGAEEAQDPEGKGEQEHS [CHGA] | 5.56 ± 0.18 | 5.3 ± 0.11 | – | –
LEPMKSRAPQLHLEYRFYEQLGSG [CSNK1G3] | 2.91 ± 0.2 | 2.63 ± 0.47 | – | –
ATQTERRLDLAAVTLRRGLRSRAS [FAM189A2] | 4.02 ± 0.24 | 4.41 ± 0.2 | – | –
VTQEPRAKKGRRNQSVEPKKEEPE [ZMYND11] | 5.45 ± 0.24 | 5.6 ± 0.21 | – | –
YIPRDVDETGITVASLERFSTYTS [ZC3H15] | 2.65 ± 0.16 | 2.96 ± 0.16 | – | –
YVKYQVAIHQDPPDECGKTEFTRF [ATE1] | 2.4 ± 0.2 | 2.56 ± 0.5 | – | –

Sequence | protein stability index [1] | protein stability index [2] | protein stability index (treatment: DMSO, c terminus: native) | protein stability index (treatment: MLN4924 1 uM, 8 h, c terminus: native)
MAQYKGAASEAGRAMHLMKKREKQ [FAM50A] | 4.7 ± 0.34 | 4.47 ± 0.4 | – | –
AAGEQLQQQHVSCQVFPERLAQGN [ATP23] | 4.47 ± 0.15 | 4.5 ± 0.28 | – | –
DGIDRWIKEIDEHAPGVPKILVGN [RAB40B] | 3.68 ± 0.28 | 3.85 ± 0.33 | – | –
GYSMNFNMSSSRGPLPVKRGPPPR [RBMX] | 3.16 ± 0.23 | 3.82 ± 0.72 | – | –
YCYRCGNQAAIMELDDTLKYSFLQ [PPP2CA] | 2.74 ± 0.58 | 2.58 ± 0.5 | – | –
PGVFVLLACGTMSSTCGQLASYPL [SLC25A25] | 3.18 ± 0.3 | 2.66 ± 0.61 | – | –
MLSPQRVAAAASRGADDAMESSKP [ATL3] | 5.21 ± 0.22 | 5.25 ± 0.25 | – | –
QLHAKIDAAEEEKYDMEVRVQKTS [TNNI2] | 5.27 ± 0.23 | 5.22 ± 0.24 | – | –
LEPSTPYRFLLYGLHEGKRLGPLS [TNXB] | 2.44 ± 0.3 | 2.46 ± 0.15 | – | –
TPISNEVEMESEEQIAERKRKMVS [KMT2E] | 5.02 ± 0.36 | 5.05 ± 0.18 | – | –
MTNHQLSTTEWNDETLYQEFNGLK [CHIT1] | 4.37 ± 0.4 | 4.56 ± 0.19 | – | –
SAESMVEYGTCMCLVKGIFYHCSN [SPRY1] | 2.65 ± 0.42 | 2.55 ± 0.34 | – | –
VPKVGQRFNRIGLPPKVGSFQLFV [PI4K2A] | 2.31 ± 0.78 | 2.34 ± 0.44 | – | –
GLSPRVIRVWFQNKRCKDKKKSIL [ISL2] | 2.13 ± 0.45 | 2.36 ± 0.085 | – | –
AGNSTSGSRAGASSFSDPFFVVET [KCNA3] | 3.75 ± 0.15 | 3.58 ± 0.27 | – | –
LVVLVVAVVASSVNSYYSSPAQQV [TOR1AIP2] | 3.22 ± 0.11 | 3.21 ± 0.23 | – | –
SVINNGHNQKVHMHMVDLMSSIIC [PDS5B] | 2.02 ± 0.27 | 2.53 ± 0.3 | – | –
GIRKEDLDIVCERFTTSKLQSFED [MLH1] | 3.6 ± 0.22 | – | – | –
NSHLTSVPHWINSNTLGFGTEQAP [ETS2] | 3.42 ± 0.15 | 3.45 ± 0.21 | – | –
IAGDEGTQIPADEDTQTDADSSAQ [TAF7L] | 5.58 ± 0.27 | 5.45 ± 0.31 | – | –
WILLAESNSADDETDDPRRYQKYG [OAS1] | 3.19 ± 0.17 | 3.32 ± 0.21 | – | –
AKIRAKIPGTGALASAAAAVSGSK [RTN2] | 4.3 ± 0.15 | 4.64 ± 0.34 | – | –
